Data from patent publication US9439886B2, “Methods for producing crosslinked flavonoid hydrogels” (Agency for Science, Technology and Research, priority 2009, dated 2016).

How the values were obtained:
[1] = H2O2 production by HA-EGCG (PeroXOquant peroxide assay); format: physicochemical; settings: HA-EGCG 10 mg/ml; pH 7.4; over 35 min; increased with time
Experimental: Measurement of H2O2 Production by HA-EGCG: The amount of H2O2 produced by HA-EGCG was determined using the PeroXOquant Quantitative Peroxide Assay Kits from Pierce. In order to determine the amount of H2O2 produced during the dissolution process, a sample of the dissolved conjugates was diluted 20-fold with distilled water, 20 μl of which was added to the well of a 96-wellplate follow by the addition of 200 μl working reagent prepared according to manufacturer's protocol. The HA-EGCG solution was then diluted to 10 mg/ml with phosphate buffer. The final ionic strength of the mixture was 0.15 M and pH was 7.4. For the next 35 min, 20 μl of the HA-EGCG solution was drawn out every 5 min and diluted 10-fold with distilled water. 20 μl of the diluted sample was then added to a well of a 96-wellplate followed by 200 μl of working reagents. After the last sample was collected and the working reagent added, the plate was incubated for another 1 h before reading the absorbance at 595 nm. The amount of H2O2 produced by HA-EGCG was determined by comparing to a set of H2O2 standards.

[2] = Gelation time of HA-EGCG hydrogels (vial tilting); format: physicochemical; settings: pH 7.4, no exogenous H2O2, HA-EGCG 17.5 mg/ml
Experimental: Preparation of HA-EGCG solution: For all experiments described below, HA-EGCG stock solution was prepared by dissolving the conjugates in distilled water at 25 mg/ml at room temperature using a magnetic stirrer. Dissolution took about 25 min and the pH of the solution was 2.5. Then the pH was brought to 6 using 2 M NaOH before diluting with sodium phosphate buffer (final ionic strength: 0.15 M) to the desired concentration and pH, depending on the gelation condition.
Formation of HA-EGCG hydrogels through air autoxidation: To form HA-EGCG hydrogel by air autoxidation, HA-EGCG solution was diluted to 17.5 mg/ml by adding sodium phosphate buffer with pH between 6.0 to 8. To determine the gelation time, glass vials containing 0.25 ml of HA-EGCG were tilted frequently at 90 degrees for 5 sec, the time at which no obvious flowing motion could be observed was recorded as the gelation time.
Acceleration of HA-EGCG hydrogel formation through air autoxidation by adding catalase: Stock solution of catalase was prepared by dissolving the enzyme in distilled water at 22.5 kU/ml. […] The gelation time was determined as described above.
Formation of HA-EGCG hydrogel by HRP-mediated crosslinking reaction: HRP stock solution was prepared in water at 6.25 U/ml. […] The gelation time was determined as described above.

hyaluronic acid-epigallocatechin gallate [HA-EGCG]
amount of H2O2 generated during air-autoxidation [1]: micromolar range
gelation time ([2]; HRP 0 unit/ml): 50 min
gelation time ([2]; HRP 0.125 unit/ml): 9 min
